Data from US20180346605A1 (Janssen / Centocor, published 2018).

T1: FcγRIIb soluble extracellular domain, C-terminal His-tag (UniProt P31994 43-217, limits assumed)
T1 construct: extracellular domain
T1 sequence (looked up): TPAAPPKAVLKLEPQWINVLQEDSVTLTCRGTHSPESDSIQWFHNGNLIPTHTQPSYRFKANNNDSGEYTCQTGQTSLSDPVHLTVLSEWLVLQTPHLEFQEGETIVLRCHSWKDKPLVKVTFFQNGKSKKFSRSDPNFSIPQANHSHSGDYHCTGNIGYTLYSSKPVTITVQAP

T2: FcγRIIa soluble extracellular domain, C-terminal His-tag (UniProt P12318 34-217, limits assumed)
T2 construct: extracellular domain
T2 sequence (looked up): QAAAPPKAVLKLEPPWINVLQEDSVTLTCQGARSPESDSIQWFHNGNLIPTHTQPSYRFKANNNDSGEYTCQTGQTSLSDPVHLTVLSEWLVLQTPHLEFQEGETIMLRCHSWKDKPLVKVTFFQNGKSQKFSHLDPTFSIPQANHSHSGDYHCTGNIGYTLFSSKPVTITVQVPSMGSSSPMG

B1: bsRSV-L[Q311R] (bispecific antibody, human IgG1, kappa)
heavy 1: not shown
light 1: EIVLTQSPGTLSLSPGERATFSCRSSHSIRSRRVAWYQHKPGQAPRLVIHGVSNRASGISDRFSGSGSGTDFTLTITRVEPEDFALYYCQVYGASSYTFGQGTKLERKRTVAAPSVFIFPPSDEQLKSGTASVVCLLNNFYPREAKVQWKVDNALQSGNSQESVTEQDSKDSTYSLSSTLTLSKADYEKHKVYACEVTHQGLSSPVTKSFNRGEC
heavy 2: not shown
light 2: not shown
notes: also called bispecific anti-RSV/gp120 with asymmetrical F405L Q311R
B2: bsRSV-L[TLQ] (bispecific antibody, human IgG1, kappa)
heavy 1: not shown
light 1: B1 light 1
heavy 2: not shown
light 2: not shown
notes: also called bispecific anti-RSV/gp120 with asymmetrical F405L/T307P/L309Q/Q311R

Legend:
[1] = biological target: T3, His-tagged FcRn (UniProt P55899 24-297; P61769 21-119); test: AlphaScreen competition at pH 6.0: unlabeled competitor antibody titrated against biotinylated wild-type IgG1 (legend: mAb RSV-L) on streptavidin donor beads for His-tagged FcRn on nickel acceptor beads
T3 construct: also called neonatal Fc receptor

[2] = biological target: T4, FcγRI soluble extracellular domain, C-terminal His-tag (UniProt P12314 16-292, limits assumed); test: AlphaScreen competition at pH 7.2: unlabeled competitor antibody titrated against biotinylated IgG1-L234A/L235A (legend: mAb RSV-L) on streptavidin donor beads for His-tagged FcγRI (200 ng/mL) on nickel acceptor beads
T4 construct: extracellular domain

[3] = biological target: T1, FcγRIIb soluble extracellular domain, …; test: AlphaScreen competition at pH 7.2: unlabeled competitor antibody titrated against biotinylated wild-type IgG1 (legend: mAb RSV-L) on streptavidin donor beads for His-tagged FcγRIIb (14 ng/mL) on nickel acceptor beads
[4] = biological target: T2, FcγRIIa soluble extracellular domain, …; test: AlphaScreen competition at pH 7.2: unlabeled competitor antibody titrated against biotinylated wild-type IgG1 (legend: mAb RSV-L) on streptavidin donor beads for His-tagged FcγRIIa (10 ng/mL) on nickel acceptor beads
[5] = biological target: T5, FcγRIIIa soluble extracellular domain, C-terminal His-tag (UniProt P08637 17-208, limits assumed); test: AlphaScreen competition at pH 7.2: unlabeled competitor antibody titrated against biotinylated wild-type IgG1 (legend: mAb RSV-L) on streptavidin donor beads for His-tagged FcγRIIIa (200 ng/mL) on nickel acceptor beads
T5 construct: extracellular domain

| Binder | IC50 (read off the curve) [1] | IC50 (read off the curve) [2] | IC50 (read off the curve) [3] | IC50 (read off the curve) [4] | IC50 (read off the curve) [5] |
| --- | --- | --- | --- | --- | --- |
| B1 | ~50 nM | ~4 nM | ~100 nM | ~100 nM | ~80 nM |
| B2 | ~100 nM | ~4 nM | – | ~100 nM | ~80 nM |
